Source: paper PMC7305299, “Nonsense-mediated mRNA decay factor UPF1 promotes aggresome formation” (Nature Communications, 2020)

Biological target: T1, FLAG-UPF1-HP (UniProt Q92900-2 1-1118, G495R | G497E, hyperphosphorylated in cells (detected with an anti-phospho-(S/T)Q antibody); sites not stated)
T1 construct: UPF1 with G495R and G497E in the helicase domain; also called FLAG-UPF1-(G495R/G497E); hyperphosphorylated UPF1; source: HEK293T, transiently transfected (pcDNA3-FLAG-UPF1-HP), in RNase A-treated cell extract
T1 sequence (looked up): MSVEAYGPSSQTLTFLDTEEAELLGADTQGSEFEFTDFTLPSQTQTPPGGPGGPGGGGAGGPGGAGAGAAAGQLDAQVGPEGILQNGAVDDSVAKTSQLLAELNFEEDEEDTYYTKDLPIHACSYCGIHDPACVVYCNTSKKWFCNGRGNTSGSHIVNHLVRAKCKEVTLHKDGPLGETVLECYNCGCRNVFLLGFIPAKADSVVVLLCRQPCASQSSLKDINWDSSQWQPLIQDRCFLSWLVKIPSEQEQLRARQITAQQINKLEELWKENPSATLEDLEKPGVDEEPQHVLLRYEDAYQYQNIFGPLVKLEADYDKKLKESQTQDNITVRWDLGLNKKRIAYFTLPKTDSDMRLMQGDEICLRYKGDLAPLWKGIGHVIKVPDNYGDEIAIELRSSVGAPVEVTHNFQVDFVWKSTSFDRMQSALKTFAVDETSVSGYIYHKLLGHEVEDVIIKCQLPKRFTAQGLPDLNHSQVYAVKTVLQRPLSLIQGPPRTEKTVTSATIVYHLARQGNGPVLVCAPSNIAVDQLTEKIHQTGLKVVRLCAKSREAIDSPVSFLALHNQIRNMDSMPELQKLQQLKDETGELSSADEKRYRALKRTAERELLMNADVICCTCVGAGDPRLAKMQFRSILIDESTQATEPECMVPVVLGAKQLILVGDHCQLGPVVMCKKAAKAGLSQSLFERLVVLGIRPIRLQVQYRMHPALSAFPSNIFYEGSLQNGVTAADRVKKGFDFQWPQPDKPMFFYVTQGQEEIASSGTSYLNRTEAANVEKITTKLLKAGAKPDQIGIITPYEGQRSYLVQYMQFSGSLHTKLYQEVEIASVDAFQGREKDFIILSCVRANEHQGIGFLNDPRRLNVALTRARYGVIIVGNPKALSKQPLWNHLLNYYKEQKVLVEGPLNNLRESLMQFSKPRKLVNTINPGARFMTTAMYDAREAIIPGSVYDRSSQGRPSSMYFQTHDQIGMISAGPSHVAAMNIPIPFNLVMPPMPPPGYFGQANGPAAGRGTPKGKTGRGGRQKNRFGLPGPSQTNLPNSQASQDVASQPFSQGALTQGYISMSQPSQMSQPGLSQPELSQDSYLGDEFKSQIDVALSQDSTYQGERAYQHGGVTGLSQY
Test: co-IP; anti-FLAG IP of FLAG-UPF1 (WT or a variant) from RNase A-treated extracts of transiently transfected HEK293T cells; cells treated with DMSO or MG132 for 12 h (Fig. 5a,b), for polypeptidyl-puro with MG132 12 h and puromycin 1 h (Fig. 5d), with or without eEF1A1 siRNA (Fig. 5e); NET-2 buffer, 4 °C; western blotting
Conditions: partners not purified

B1: DCP1A, cellular (natural protein, human (endogenous in HEK293T), UniProt Q9NPI6 1-582, looked up)
chain: MEALSRAGQEMSLAALKQHDPYITSIADLTGQVALYTFCPKANQWEKTDIEGTLFVYRRSASPYHGFTIVNRLNMHNLVEPVNKDLEFQLHEPFLLYRNASLSIYSIWFYDKNDCHRIAKLMADVVEEETRRSQQAARDKQSPSQANGCSDHRPIDILEMLSRAKDEYERNQMGDSNISSPGLQPSTQLSNLGSTETLEEMPSGSQDKSAPSGHKHLTVEELFGTSLPKEQPAVVGLDSEEMERLPGDASQKEPNSFLPFPFEQLGGAPQSETLGVPSAAHHSVQPEITTPVLITPASITQSNEKHAPTYTIPLSPVLSPTLPAEAPTAQVPPSLPRNSTMMQAVKTTPRQRSPLLNQPVPELSHASLIANQSPFRAPLNVTNTAGTSLPSVDLLQKLRLTPQHDQIQTQPLGKGAMVASFSPAAGQLATPESFIEPPSKTAAARVAASASLSNMVLAPLQSMQQNQDPEVFVQPKVLSSAIPVAGAPLVTATTTAVSSVLLAPSVFQQTVTRSSDLERKASSPSPLTIGTPESQRKPSIILSKSQLQDTLIHLIKNDSSFLSTLHEVYLQVLTKNKDNHNL
notes: DCP1A (component of the decapping complex), cellular protein co-immunopurified from HEK293T extracts; source: endogenous, HEK293T extract
fold more co-immunopurified than with UPF1-WT or UPF1-HP-12A: ~5 fold
